Assay results taken from paper PMC11197489, “RNA 5-methylcytosine regulates YBX2-dependent liquid-liquid phase separation”.

Columns and labels:
Settings in all cases: protein: recombinant; tags: His6-SUMO removed by Ulp1
hYBX2 CSD W100F (ITC) = hYBX2 CSD W100F (ITC) (human, UniProt Q9Y2T7 85-177, I92T;Q93K;W100F); assay: ITC; ITC: 25 C, iTC200, buffer not stated (protein stock 10 mM Tris-HCl pH 8.0, 100 mM NaCl, 1 mM DTT); EMSA: 50 mM Tris-HCl pH 7.5, 100 mM NaCl, 0.4 mM EDTA, 0.1% NP-40, 1 mM DTT, 50% glycerol, BSA, on ice, 0.2% glutaraldehyde; pull-down: 100 mM NaCl, 10 mM Tris-HCl pH 7.6, 2 mM EDTA, 0.5% NP-40, 4 C
Sequence of hYBX2 CSD W100F (ITC) (Q9Y2T7 85-177 I92T/Q93K/W100F): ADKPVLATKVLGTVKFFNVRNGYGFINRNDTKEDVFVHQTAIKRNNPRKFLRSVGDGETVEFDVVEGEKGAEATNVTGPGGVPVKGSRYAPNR

[1] = target: hYBX2 CSD I92T/Q93K (called wild-type in ITC) (human, UniProt Q9Y2T7 85-177, I92T;Q93K); assay: as above
Sequence of hYBX2 CSD I92T/Q93K (called wild-type in ITC) (Q9Y2T7 85-177 I92T/Q93K): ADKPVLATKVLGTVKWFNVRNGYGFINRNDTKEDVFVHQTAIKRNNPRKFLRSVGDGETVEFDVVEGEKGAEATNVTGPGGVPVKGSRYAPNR

[2] = target: hYBX2 CSD W100F/Y173F (ITC) (human, UniProt Q9Y2T7 85-177, I92T;Q93K;W100F;Y173F); assay: as above
Sequence of hYBX2 CSD W100F/Y173F (ITC) (Q9Y2T7 85-177 I92T/Q93K/W100F/Y173F): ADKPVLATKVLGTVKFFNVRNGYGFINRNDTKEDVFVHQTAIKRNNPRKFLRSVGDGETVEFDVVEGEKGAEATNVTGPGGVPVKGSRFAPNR

[3] = target: hYBX2 CSD 85-177 (crystal) (human, UniProt Q9Y2T7 85-177, I92T;Q93K); assay: crystal structure; ITC: 25 C, iTC200, buffer not stated (protein stock 10 mM Tris-HCl pH 8.0, 100 mM NaCl, 1 mM DTT); EMSA: 50 mM Tris-HCl pH 7.5, 100 mM NaCl, 0.4 mM EDTA, 0.1% NP-40, 1 mM DTT, 50% glycerol, BSA, on ice, 0.2% glutaraldehyde; pull-down: 100 mM NaCl, 10 mM Tris-HCl pH 7.6, 2 mM EDTA, 0.5% NP-40, 4 C
Sequence of hYBX2 CSD 85-177 (crystal) (Q9Y2T7 85-177 I92T/Q93K): as the sequence (Q9Y2T7 85-177 I92T/Q93K) above

[4] = target: hYBX2 CSD 85-165 (crystal) (human, UniProt Q9Y2T7 85-165, I92T;Q93K); assay: as above
Sequence of hYBX2 CSD 85-165 (crystal) (Q9Y2T7 85-165 I92T/Q93K): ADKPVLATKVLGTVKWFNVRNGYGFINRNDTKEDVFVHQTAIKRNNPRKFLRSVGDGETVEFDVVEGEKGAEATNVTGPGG

Binder | Kd (hYBX2 CSD W100F (ITC)) | Kd [1] | Kd [2] | binding result [3] | binding result [4]
UCAUCUCU (ssRNA) [ITC unme-C RNA] | 2.59 ± 0.12 µM | 0.71 ± 0.06 µM | 7.26 ± 0.24 µM | – | –
UCAUCUU (ssRNA, m5C at position 5) [UCAU(m5C)UU] | – | – | – | binds | –
GUCUC (ssRNA, m5C at positions 3 and 5) [GU(m5C)U(m5C)] | – | – | – | binds | –
UCAUCU (ssRNA, m5C at position 5) [UCAU(m5C)U] | – | – | – | binds | binds
UCAUCUCU (ssRNA, m5C at position 5) [ITC m5C RNA UCAU(m5C)UCU] | 2.34 ± 0.09 µM | 0.22 ± 0.02 µM | 6.33 ± 0.52 µM | – | –
